Measurements taken from paper PMC9758056.

Legend:
[1] = molecular target: Taxol-stabilized microtubules from porcine brain tubulin (porcine) (UniProt P02550); assay: co-sedimentation; 200 nM LRRK^RCKW with various concentrations of taxol-stabilized microtubules, 10 minutes at room temperature, 20 mM Hepes pH 7.4, 110 mM NaCl (also 100 and 150 mM NaCl), 0.5 mM MgCl2, 0.5 mM TCEP, 5% glycerol, 20 μM GDP, 20 μM taxol; pelleted at 108,628 g; depletion from the supernatant on SYPRO-Red gels
[2] = molecular target: Subtilisin-treated taxol-stabilized microtubules (C-terminal tubulin tails cleaved), labeled with Alexa Fluor 488 and biotin (bovine) (UniProt Q6B856); assay: widefield fluorescence microscopy of labeled protein on tethered microtubules; Alexa Fluor 488-labeled microtubules tethered to a coverslip by biotin-streptavidin; TMR-labeled LRRK^RCKW (6.25 nM–50 nM; 100 nM for the NaCl series) incubated 5 minutes in 20 mM Hepes pH 7.4, 80 mM NaCl, 0.5 mM MgCl2, 0.5 mM TCEP, 5% glycerol, 20 μM GDP; also increasing sodium chloride
Sequence of Subtilisin-treated taxol-stabilized microtubules (C-terminal tubulin tails cleaved), labeled with Alexa Fluor 488 and biotin (bovine) (Q6B856 whole entry, looked up): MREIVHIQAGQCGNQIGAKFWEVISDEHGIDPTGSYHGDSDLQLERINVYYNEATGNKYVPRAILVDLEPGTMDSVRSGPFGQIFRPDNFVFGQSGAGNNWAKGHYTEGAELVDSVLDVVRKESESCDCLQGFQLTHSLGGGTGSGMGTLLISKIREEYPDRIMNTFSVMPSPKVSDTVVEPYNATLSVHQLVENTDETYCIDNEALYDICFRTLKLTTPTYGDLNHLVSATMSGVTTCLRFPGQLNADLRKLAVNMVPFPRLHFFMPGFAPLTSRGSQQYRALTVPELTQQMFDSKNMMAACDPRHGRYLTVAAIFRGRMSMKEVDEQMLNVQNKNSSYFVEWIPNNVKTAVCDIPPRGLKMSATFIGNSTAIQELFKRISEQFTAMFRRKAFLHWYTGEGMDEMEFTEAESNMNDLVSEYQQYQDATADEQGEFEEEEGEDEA

Sequence of TMR-LRRK2^RCKW (LRRK2^RCKW randomly labeled with BODIPY TMR-X) (Q5S007 1327-2527): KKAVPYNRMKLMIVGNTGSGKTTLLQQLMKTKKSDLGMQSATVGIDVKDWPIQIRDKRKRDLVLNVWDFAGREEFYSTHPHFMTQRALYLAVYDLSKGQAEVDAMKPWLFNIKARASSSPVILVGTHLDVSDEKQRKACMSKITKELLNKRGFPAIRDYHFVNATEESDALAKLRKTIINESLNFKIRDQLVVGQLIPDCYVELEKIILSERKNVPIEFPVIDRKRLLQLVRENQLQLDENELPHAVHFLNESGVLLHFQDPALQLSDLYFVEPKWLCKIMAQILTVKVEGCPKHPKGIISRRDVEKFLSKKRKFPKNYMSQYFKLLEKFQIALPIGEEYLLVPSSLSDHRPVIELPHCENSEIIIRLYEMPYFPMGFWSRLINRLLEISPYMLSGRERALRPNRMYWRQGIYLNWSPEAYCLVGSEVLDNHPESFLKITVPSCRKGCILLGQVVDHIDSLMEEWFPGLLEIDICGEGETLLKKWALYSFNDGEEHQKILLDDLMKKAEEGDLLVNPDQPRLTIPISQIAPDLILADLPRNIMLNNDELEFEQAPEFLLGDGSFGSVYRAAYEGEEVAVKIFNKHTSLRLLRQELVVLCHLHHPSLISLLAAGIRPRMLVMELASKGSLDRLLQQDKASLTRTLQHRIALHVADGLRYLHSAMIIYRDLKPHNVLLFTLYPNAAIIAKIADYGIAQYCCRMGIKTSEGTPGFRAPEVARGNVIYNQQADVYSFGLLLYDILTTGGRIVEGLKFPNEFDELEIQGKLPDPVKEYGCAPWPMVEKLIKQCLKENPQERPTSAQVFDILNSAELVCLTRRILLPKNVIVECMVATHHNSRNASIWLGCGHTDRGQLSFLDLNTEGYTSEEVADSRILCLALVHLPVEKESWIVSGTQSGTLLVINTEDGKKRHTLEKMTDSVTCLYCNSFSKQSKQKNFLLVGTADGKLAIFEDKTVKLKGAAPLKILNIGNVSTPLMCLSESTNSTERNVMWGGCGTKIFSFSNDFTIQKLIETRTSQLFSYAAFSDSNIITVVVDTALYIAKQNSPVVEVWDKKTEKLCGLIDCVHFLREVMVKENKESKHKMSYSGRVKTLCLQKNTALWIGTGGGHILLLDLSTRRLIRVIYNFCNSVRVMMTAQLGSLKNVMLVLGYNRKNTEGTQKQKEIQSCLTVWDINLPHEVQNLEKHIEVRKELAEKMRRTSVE

“LRRK2^RCKW-R1731D (from UniProt Q5S007 1327-2527) (domain or fragment)” gave a reduction of pelleting with microtubules against WT LRRK2^RCKW [1] of 50%.
“TMR-LRRK2^RCKW (LRRK2^RCKW randomly labeled with BODIPY TMR-X) (from UniProt Q5S007 1327-2527) (domain or fragment)” showed a decrease of microtubule binding against untreated microtubules [2] of 50%.
